Experiment: soluble on expression in E. coli; label from the status in PepcDB or PDB records

Sequence | soluble on expression in E. coli
MIRVCNQIGIPYYAVNFEKQYYEKVFQYFLDEYKAGRTPNPDVLCNKEIKFKAFLEHALSLGADYLATGHYARVDRSGGKVRMLRGIDENKDQTYFLNQLTEDTLSKVMFPIGELQKSRVREIAKEAELATATKKDSTGICFIGERNFKTFLSQYLPAQPGDMMTMDGEVKGRHDGLMYYTIGQRHGLGIGGSGEPWFAVGKDLEKNILYVDQGFHNPLLYSDKITATNISWVRSDIMKGEEISCTAKFRYRQEDHKVTVRMTGEGEAEVIFDEQVRAVTPGQAVVFYDGEECLGGGTIDDVYKDGTKLWYV | not soluble
MSDSLPQRNGGQILVEALRRNAVDTVYCIPGESYLPVLDALYDTDGIRTVVTRHEGAASNMADAYGKLTGRPGICFVTRGPGATHAANGVHTAQQDSTPMILFVGQVESAFKGREAFQEVDYVQMFSGLAKWAVEIDRIERIPEIVGRAFSVATSGRPGPVVVALPEEILFGSAQVADAPEPRVLPGRPGATAMAELRELLANARRPLLVLGGSGWDSAARKRLGAFVEANGLPVATSFRRQDLFDNRDPHYAGQLGFGAAPALLERLRQADLLLVVGARLGETPSAGYSLVRSPAPAQTLIHVHPDSAELNRVYLARLPIQATPCAFAEALADLAPLPSSTWQDWREAAHADYLAYSTPAASDPAVQGVDLASVVAYLSENLPDDAVIANGAGNYAVWVHRFYRYRQARTQLAPTNGAMGYGLPAAIAASLRDPQRSVVCFAGDGCFMMYPQELATAAQFGATPVVIVVNNGMLGTIRMHQEREYPGRVSATRLDNPDFVALARAFGAHAERVECSADFPAAFRRARESGRPALLELLTDPRQITPQA | not soluble
AIAADKEAAFDDAVEERVINEEYKIWKKNTPFLYDLVMTHALEWPSLTAQWLPDVTRPDGKDFSIHRLVLGTHTSDEQNHLVIASVQLPNDDAQFDASHYDSEKGEFGGFGSVSGKIEIEIKINHEGEVNRARYMPQNPCIIATKTPSCDVLVFDYTKHPSKPDPSGECNPDLRLRGHQKEGYGLSWNPNLSGNLLSASDDHTICLWDISAVPKEGKVVDAKTIFTGHTAVVEDVSWHLLHESLFGSVADDQKLMIWDTRSNNTSKPSHSVDAHTAEVNCLSFNPYSEFILATGSADKTVALWDLRNLKLKLHSFESHKDEIFQVQWSPHNETILASSGTDRRLNVWDLSKIGEEQSPEDAEDGPPELLFIHGGHTAKISDFSWNPNEPWVICSVSEDNIMQVWQMAENIYNDEDTEGSVDPEGQGS | soluble
MTKSQKQTKQYLRIFDQQMSLYEHYARKNSLQSKSLFILLWLYYNPQGITQKQIVEKTYSTKQVVNATLKRWNEKNYIVFLKSQTDRREKKIILSSQGQEYAASIIAPLEKMEEAAFNSLSIQEQQTMIQLTGHYYQALLSQMQLYFVQGEGEKATKEKL | not soluble
MGSDKIHHHHHHKVRPTKTTLKKDTQLYGVTIDDSWYDRTKMTDIIAALKAMPVKPTVRIVMSKDSSPKSYVNLFRKLHKVAYVMACPVDSYEMNLYKDVNSYRKRFAVAYHYLSSYTDIWEIGNEVNGTDWIKQKNTLITQKLKAVCQTISSAGGKTALTFYYENPKYDHDMIAWIKKNIPVMLRSRVDYGFISYYEDDNEGYQPDWQSVFNQLQNLFPNSNVGMGECGNTADNATENSKIAMAKRYYTMPKYTKHYVGGYFWWEWVQDCVPHENNPIYDAINKSLKK | not soluble
MSKNDTEKILLDDLLFLQRAPYYESFSVYKIDSNKYIENENDSHIDRWLSMAVSGDDKTEAPTEFVIEPGGCLISLVVDRRLISLY | not soluble
MTEQTSPESLTDGAHSKTDSAWPLACNLEPRLVSRGRWQTTQWMLHGFSLTPEAQSQYVATLHLYRDERTDYRFNLSSQAPKLFLVAEDPIEDQPLKVVQLTASQAVASRYMDSDYLVLSADMPLPVQALMEAYIGRHGELLEIRRKKREGAGRSCGN | not soluble
MQGVKERFLPLGNSGDRAPRPPDGRGRVRPRTQDGVGNHTMARIPKTLKFVVVIVAVLLPVSPRRGPWLGKSAPGAGRGQGDGDTAGMPGPGHLRPGMSGQDELAVGVRGRTGSPGWAGGTRPRGSREAVPLAAPSPRREGSSRIERGRESRWNP | soluble
MGSDKIHHHHHHMIHLAVGRFNIDIIVKLDSIPPIDSSHMTDVLEIMPGGAATNYAVAVTKLGHSAKLLAKVGKSEVVRSLMEKVVELGVGLEYVEELNEKPSATLIFLRNDGTLSMVRRLGASILLTREDVKRRFGLFDVIHFASVSPNVVVRDPYAKLVSYDPGPQAKNIESVDVDILYVNEKEYEMIEDKNIRARFIVIKMGKKGAKIITETEECSVEPIQVEKIVDTTGAGDTFDAAFNVTYSEDKDIVKSLQVASVASGLKVSRIGGISSPTLEEVREYLRKKKPNVICK | not soluble
MAHHHHHHMDALIGQLENVEPDNILKSAEEFRNDKSDVKVNLSIGVCCDENGQLHIFKSVLEAEKLVQQRYKEKPYMLSNGTKQFSLLTQKLIFGENSKYLKEKKICTVQAIGGTGAICIALQLFKMLHIREICVTNKPYVNHVNMITSNGIKVKYISFFEEKLVNINYDAFLNDLRKLEDGSVLLLQVSCYNPCSTNIEEIYFDEIANIVWKKKHVIVFDIAYQGFGSSNMNDDVSLVKKFEERGISFVVCQSFSKNMSLYGERAGALHIVCKSKEERKIVANNLRVITRKFYSSPTIHTNRIVCQLLEDEKLKSEWISDLRELSERVHKNRVLFFEKMEFYQKKFDLHYDWSVYKKQRGIFSFVPMFSAIYRKLKEHHVYIIDNGRINVSGITARNVDYVAEKVCLSLAEVKRCG | not soluble
KAPLDEIADDSFWSDETLVKYYVNDLYSEISVDGLQLQENRSDNSVSAQRDKYRASWFKFNYDMVSASDPQDDDVWEDYYVKVRKCNRFFERIGTSTIEESEKSRLTGEVHFLRAMFYFEMVKRYGGVILLDKVLTMEDNWEIPRSSEKECYDFILEDLKKATEMLPASYGSREKGRATKGAAYALKSRVELYDKRYEDVIKSCAEVYKLGYELVDGTTPEKYRSIWWTTNKDNKEIIFDVQYKSPDVYNNMMVCNMVTYINDKYGDRGWGGLGPTQELIDAFEMADGTPATQYSQAPADQVFDINTCGIYEGREPRFYANIVFHGSQIFFNADKGAVTVDRYLMDTPDKGDGSLTGYNVWKWIDYDNYNYPYAGAGSPDFSTNWIILRYAEIYLNDAEARLETGDVEGARKAVNMIRQRVGLPDLTESDPEKLRELIRKERRIEFAFEEQRFYDVRRWKIGPETQTTLHGVRFVSPTEFKVTKTDIRTWNDRLYLTPVPHDEIVRSSVLKQNLGY | soluble
MKTRTQQIEELQKEWTQPRWEGITRPYSAEDVVKLRGSVNPECTLAQLGAAKMWRLLHGESKKGYINSLGALTGGQALQQAKAGIEAVYLSGWQVAADANLAASMYPDQSLYPANSVPAVVERINNTFRRADQIQWSAGIEPGDPRYVDYFLPIVADAEAGFGGVLNAFELMKAMIEAGAAAVHFEDQLASVKKCGHMGGKVLVPTQEAIQKLVAARLCADVTGVPTLLVARTDADAADLITSDCDPYDSEFITGERTSEGFFRTHAGIEQAISRGLAYAPYADLVWCETSTPDLELARRFAQAIHAKYPGKLLAYNCSPSFNWQKNLDDKTIASFQQQLSDMGYKFQFITLAGIHSMWFNMFDLANAYAQGEGMKHYVEKVQQPEFAAAKDGYTFVSHQQEVGTGYFDKVTTIIQGGTSSVTALTGSTEESQF | soluble
MGHHHHHHSHMASGSNWLSGVNVVLVMAYGSLDLKEEIDIRLSRVQDIKYEPQLLADDDARLLQLETQGNQKIPFHSEGRHPRSLMGKNFRSYLLDLRNTSTPFKGVRKALIDTLLDGYETARYGTGVFGQNEYLRYQEALSELATAVKARIGSSQRHHQSAAKDLTQSPEVSPTTIQVTYLPSSQKSKRAKHFLELKSFKDNYNTLESTL | not soluble
MSLNTVLRLPLKYPSTNKELKSHEYFESQIAYTGCLIATTTHMVDHISWRLNNDLKTITLTPICISNPFQLECRTISLLLPSQVYPHCIDAVYHGEEGGYLVVDVIDENYLWITLRIEMNDFLHNTKNFRPLTLDQFESWGHISVPYSFELRSNPYCLRVLDERNVVVSLKDGGLLHFQRSSVLADFNVFNCEESAHFHLGGILDGIFKSGRADLTVDGVSSNAAIDATIVPDPSKSLIATLTVSKTIKFWDLKEHSLLRERTIHPQDTNTWLSFGPARYLQCYGNVLGVHSLLQTKHSTSIDFWDVSPLKEDQKSYKILHTVELLSPTINGAPSDSPFSNDIWFIQDFTLKFEKGNFTVLWKSNNSSILTIYDLKNLAENDKPPKLSQWTLSGSEGHHHHHH | not soluble
MLTKVIEQAKIDHFTKWFERADKIVIVSHVSPDGDAIGSSLGLYHFLDSQEKTVNVIVPNAFPDFLRWMPGSKDILLYDRYKDFADKLIAEADVICCLDFNALKRIDEMADAVAASPARKVMIDHHLYPEEFCKITMSYPKISSTSELIFRLICRMGYFSDISKEGAECIYTGMMTDTGGFTYNSNNREIYFIISELLSKGIDKDDIYRKVYNTYSESRLRLMGYVLSNMVVYSDYNAALISLTKEEQSKFDYIKGDSEGFVNIPLTIKNVCFSCFLREDTEKPMIKISLRSVGTFPCNQLAAEFFNGGGHLNASGGEFFGTIEEAKAVFEQALEKYKPLLTAKSLEHHHHHH | soluble
MAPPKRRSTRPTTPAAPTDPPIEEKKPDLLIAYDSDEKFVFSFSEEGLTAKECAEKMNGFSTKEQFLTEVHVDEMLRFLTKVIIGRKGEPLKCLCCDRLYVSSSGFLIHIKKCSTKNEQDRLTDAQNKYRNEPSKWLNVRKKDQIATLKTIVGTNYTCFMIGCSLNFGSLKDLIEHLATCIGADYYSYKNRPDDFRKLSKKAKQAYTLDAVTKNKGIVKCLVCDKEYTNHMSIIYHIDRCQVDKSLQPWKCWRCGFDATAADAQEHLIDCGRTAEMKMFDRLPESSSFGFPIPGSSVPSTSEPTTSAAAAPTKRKRVTGGAPRATPRKDGTTLYRFRKSTISRSSNGIVTKKDKKLYEDQCSKIFENWKQKSAEIAFCDTLSNIANSKWKLSILDSNDQFYRIFTRQSVTLVSGKTLGLQQTVPPGIRLDALKSREMLDEDDAPKATVGYCGAPINSINVAPGKTRDGSDVICVTTFANDTDLESDSSCVQFWKHKLGKKKKSHLELWFLIHLPLRGTILHATWLQKQHNDEMMTSLIGYVAFSTTIGQILIYKIDESRVPEAPDRGDNVHVIVADPDLTLRLPKSTDTPDDTFLNADVKMEGDDIVVLPTRIDESTVPLLKIAWSYHNGGATLAALTALGAIAIWNLDGGDLDMPRVNIEESWQSPPSDIAFWNIDHLVVGFREKIVKVISIETWDVMLEDNTAKNAGSRVHTDNRIVRSFFMFQSDHTAFPYPNATNLTYVHCDIDTMTMILVPTGNTHQLLTWDVAMCPAVGTLLSSGIDGRLVASATGRFLGNMRHSYFANRNVMALKRRRILKESQTMEEYLKEVKMEGSAEGSTSTSTTKISDDKINEPLEESITEHTEVCQKMWLDVQFDEIFEPTRPEFSCRDQRIESLNCVDGTTSRDWPVSFTGGEAGLLFAVSVKLHIEEMDL | not soluble
MGSDKIHHHHHHMTAPLKSLFLLDPSVTYLNHGAYGATPRPVFERHVQWQYELEREPVDFLSRRFAERMAQARAILAEYVDTERDNLVYVSNGTTGVNIVARSLPLGPGDELLTTDHEHGGIERLWRFTAQKRGFEIVRHKVSLPVTTHARFVEDFWRDVTPRTRAILISQLTSPTALVFPVAAICARARARGILTIVDGSHVPGQLPLSLREMDPDFYVGILHKWVCAPKGSAFLYARPDVQPLVEPLVVSWGWEPKNPGPSKFVEYHEWQGSRDISAFLSVPSAIAFQREHDWDGVRKRCIALASDAQREVAALTREPLYHPPGAHEWHGQMVCAQLPPQTDDIALLARLRNECGIDVSVDRFGGRPRIRVSIQGYNGPDDVDRLLGSLKQLLRL | not soluble
RGRLKVFLGAAPGVGKTYAMLQAAHAQLRQGVRVMAGVVETHGRAETEALLNGLPQQPLLRTEYRGMTLEEMDLDALLKAAPSLVLVDELAHTNAPGSRHTKRWQDIQELLAAGIDVYTTVNVQHLESLNDQVRGITGVQVRETLPDWVLQEAFDLVLIDLPPRELLERLRDGKVYVPEQARAAIDAFFTQTNLTALREMAMQTAAAQVDNDLAQGYRQLGQSAP | soluble
